# Results published in patent publication US20190271021A1 (Hoffmann-La Roche, published 2019).
# Legend:
# [1] = target: T1, TrkB-Fc fusion (R&D Systems) (UniProt Q16620 32-430); test: TrkB ELISA, plate coated with TrkB-Fc, detection with anti-BDNF antibody
# T1 construct: the ELISA paragraph says only TrkB-Fc fusion (R&D Systems); also called Human Fc-tagged TrkB; not shown: Fc part of the bought fusion
# Protocol: The binding properties of BDNF-containing fusion proteins were determined with a TrkB ELISA. Maxisorb plates were coated with 1 μg/mL of a TrkB-Fc fusion (R&D Systems) in PBS overnight at 4° C. After blocking the plate with PBSTC (PBS with 0.05% Tween-20 and 2% Chicken serum (Gibco)) for 1 h at RT and three washes with PBST, BDNF-containing fusion proteins or BDNF alone were added to the wells at concentrations of 15 to 500 ng/mL in PBSTC and incubated for 2 h at RT. After six washes, the wells were incubated with mouse-anti-BDNF antibody (clone 4F11.1A1, 1 μg/mL in PBSTC) and, after further washes, with anti-mouse-HRP antibody (1:10000 in PBSTC), both for 1 h at RT. After three washes with PBST, HRP activity was detected using ABTS substrate and photometric quantification at a wavelength of 492 nm.
# [2] = target: T2, human TrkB on CHO cells (CHO-K1-hTrkB/pSRE-Luc) (human, UniProt Q16620 32-822); test: cell-based or functional assay
# T2 sequence (Q16620 32-822): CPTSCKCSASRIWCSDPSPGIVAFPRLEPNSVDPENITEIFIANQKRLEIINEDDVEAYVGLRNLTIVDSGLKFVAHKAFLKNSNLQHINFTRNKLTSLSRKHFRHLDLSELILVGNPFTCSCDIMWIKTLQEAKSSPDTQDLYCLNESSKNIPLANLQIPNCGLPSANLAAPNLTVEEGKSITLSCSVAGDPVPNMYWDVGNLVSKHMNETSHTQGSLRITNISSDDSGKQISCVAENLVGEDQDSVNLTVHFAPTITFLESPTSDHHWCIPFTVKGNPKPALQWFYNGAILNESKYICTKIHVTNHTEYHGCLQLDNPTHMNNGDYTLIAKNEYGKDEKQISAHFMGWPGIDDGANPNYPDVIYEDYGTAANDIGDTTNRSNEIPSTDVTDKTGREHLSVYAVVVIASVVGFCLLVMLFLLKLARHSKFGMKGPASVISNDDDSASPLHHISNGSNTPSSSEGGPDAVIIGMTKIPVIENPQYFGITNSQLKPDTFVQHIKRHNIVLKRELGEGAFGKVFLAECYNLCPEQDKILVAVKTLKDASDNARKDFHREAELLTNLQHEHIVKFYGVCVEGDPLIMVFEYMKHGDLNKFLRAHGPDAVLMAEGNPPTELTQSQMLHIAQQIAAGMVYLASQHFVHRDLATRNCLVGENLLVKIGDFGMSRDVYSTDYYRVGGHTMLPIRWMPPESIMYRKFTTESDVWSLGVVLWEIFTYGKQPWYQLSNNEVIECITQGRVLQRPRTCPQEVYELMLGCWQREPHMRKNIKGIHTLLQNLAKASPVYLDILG
# [3] = target: T2, human TrkB on CHO cells …; test: cell-based or functional assay; remark: listed apart in the source
# T1 sequence (Q16620 32-430 limits assumed): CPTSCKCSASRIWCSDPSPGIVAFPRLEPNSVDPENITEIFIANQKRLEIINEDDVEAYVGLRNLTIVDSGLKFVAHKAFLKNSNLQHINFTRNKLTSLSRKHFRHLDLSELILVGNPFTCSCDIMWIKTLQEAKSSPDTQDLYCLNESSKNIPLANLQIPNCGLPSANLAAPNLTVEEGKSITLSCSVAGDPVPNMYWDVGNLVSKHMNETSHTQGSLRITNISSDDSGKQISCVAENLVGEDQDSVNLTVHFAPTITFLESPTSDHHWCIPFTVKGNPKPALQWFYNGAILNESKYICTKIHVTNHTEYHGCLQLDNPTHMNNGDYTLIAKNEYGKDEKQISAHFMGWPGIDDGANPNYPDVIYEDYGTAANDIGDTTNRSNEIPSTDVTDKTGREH
Binder,EC50 [1],"BDNF activity in TrkBluciferase assay, EC50 [% or nM] [2]","relative BDNF activity in TrkB luciferase assay, EC50 [%] [3]"
"pre-pro-BDNF(-RGD)_(G4S)4GG_VH<IGF-1R>-CH1-His6 with anti-IGF-1R antibody light chain (other, BDNF part of the entry is the pre-pro precursor) heavy: HSDPARRGELSVCDSISEWVTAADKKTAVDMSGGTVTVLEKVPVSKGQLKQYFYETKCNPMGYTKEGCRGIDKRHWNSQCRTTQSYVRALTMDSKKRIGWRFIRIDTSCVCTLTIKGGGGSGGGGSGGGGSGGGGSGGQVELVESGGGVVQPGRSQRLSCAASGFTFSSYGMHWVRQAPGKGLEWVAIIWFDGSSTYYADSVRGRFTISRDNSKNTLYLQMNSLRAEDTAVYFCARELGRRYFDLWGRGTLVSVSSASTKGPSVFPLAPSSKSTSGGTAALGCLVKDYFPEPVTVSWNSGALTSGVHTFPAVLQSSGLYSLSSVVTVPSSSLGTQTYICNVNHKPSNTKVDKKVGSGHHHHHH light: not shown",13.5 nM,,
"pre-pro-BDNF(-RGD)_(G4S)6GG_VH<IGF-1R>-CH1-His6 with anti-IGF-1R antibody light chain (other, BDNF part of the entry is the pre-pro precursor) heavy: HSDPARRGELSVCDSISEWVTAADKKTAVDMSGGTVTVLEKVPVSKGQLKQYFYETKCNPMGYTKEGCRGIDKRHWNSQCRTTQSYVRALTMDSKKRIGWRFIRIDTSCVCTLTIKGGGGSGGGGSGGGGSGGGGSGGGGSGGGGSGGQVELVESGGGVVQPGRSQRLSCAASGFTFSSYGMHWVRQAPGKGLEWVAIIWFDGSSTYYADSVRGRFTISRDNSKNTLYLQMNSLRAEDTAVYFCARELGRRYFDLWGRGTLVSVSSASTKGPSVFPLAPSSKSTSGGTAALGCLVKDYFPEPVTVSWNSGALTSGVHTFPAVLQSSGLYSLSSVVTVPSSSLGTQTYICNVNHKPSNTKVDKKVGSGHHHHHH light: not shown",18.5 nM,,
"pre-pro-BDNF(-RGR)-T7-His6 (ligand, Entry is the pre-pro precursor as expressed (HEK293); values normalized to maturated BDNF; also called pp-BDNF; parental construct) HSDPARRGELSVCDSISEWVTAADKKTAVDMSGGTVTVLEKVPVSKGQLKQYFYETKCNPMGYTKEGCRGIDKRHWNSQCRTTQSYVRALTMDSKKRIGWRFIRIDTSCVCTLTIKGSGMASMTGGQQMGHHHHHH",8.9 nM,,
"complex of pre-pro-BDNF(-RGD)_(G4S)2GG_VH<IGF-1R>-CH1-His6, anti-IGF-1R antibody light chain and not-fused pre-pro-BDNF(-RGR)-T7-His6 (other, BDNF-Fab fusion co-expressed with light chain and not-fused BDNF; BDNF entries are pre-pro precursors) heavy: HSDPARRGELSVCDSISEWVTAADKKTAVDMSGGTVTVLEKVPVSKGQLKQYFYETKCNPMGYTKEGCRGIDKRHWNSQCRTTQSYVRALTMDSKKRIGWRFIRIDTSCVCTLTIKGGGGSGGGGSGGQVELVESGGGVVQPGRSQRLSCAASGFTFSSYGMHWVRQAPGKGLEWVAIIWFDGSSTYYADSVRGRFTISRDNSKNTLYLQMNSLRAEDTAVYFCARELGRRYFDLWGRGTLVSVSSASTKGPSVFPLAPSSKSTSGGTAALGCLVKDYFPEPVTVSWNSGALTSGVHTFPAVLQSSGLYSLSSVVTVPSSSLGTQTYICNVNHKPSNTKVDKKVGSGHHHHHH light: not shown HSDPARRGELSVCDSISEWVTAADKKTAVDMSGGTVTVLEKVPVSKGQLKQYFYETKCNPMGYTKEGCRGIDKRHWNSQCRTTQSYVRALTMDSKKRIGWRFIRIDTSCVCTLTIKGSGMASMTGGQQMGHHHHHH",6.1 nM,,

# Continued, values first:
EC50 [1],"BDNF activity in TrkBluciferase assay, EC50 [% or nM] [2]","relative BDNF activity in TrkB luciferase assay, EC50 [%] [3]",Binder
17 nM,,,"pre-pro-BDNF(-RGD)_(G4S)2GG_VH<IGF-1R>-CH1-His6 with anti-IGF-1R antibody light chain (other, BDNF part of the entry is the pre-pro precursor) heavy: HSDPARRGELSVCDSISEWVTAADKKTAVDMSGGTVTVLEKVPVSKGQLKQYFYETKCNPMGYTKEGCRGIDKRHWNSQCRTTQSYVRALTMDSKKRIGWRFIRIDTSCVCTLTIKGGGGSGGGGSGGQVELVESGGGVVQPGRSQRLSCAASGFTFSSYGMHWVRQAPGKGLEWVAIIWFDGSSTYYADSVRGRFTISRDNSKNTLYLQMNSLRAEDTAVYFCARELGRRYFDLWGRGTLVSVSSASTKGPSVFPLAPSSKSTSGGTAALGCLVKDYFPEPVTVSWNSGALTSGVHTFPAVLQSSGLYSLSSVVTVPSSSLGTQTYICNVNHKPSNTKVDKKVGSGHHHHHH light: not shown"
5.7 nM,0.44 nM,60%,"wild-type BDNF (E. coli) (ligand, No tag, no linker, RGR not deleted; also called wt-BDNF; non-glycosylated mature wild-type BDNF) HSDPARRGELSVCDSISEWVTAADKKTAVDMSGGTVTVLEKVPVSKGQLKQYFYETKCNPMGYTKEGCRGIDKRHWNSQCRTTQSYVRALTMDSKKRIGWRFIRIDTSCVCTLTIKRGR"
